Assay results reported in CN106749645A.

Target: HCV包膜糖蛋白
Experiment: cell-based or functional assay

B1: 全人源抗HCV中和抗体TRN1002 (antibody)
heavy: QVQLVQSGAEVKKPGSSVRVSCKASGGTLGSFAGSWVRQAPGQGLEWIGGIIPMFRRTNYAQKFQGRVTITADESTGTTYLELSSLRSDDTAIYFCAREIPGYCTGGRCFGYFDYWGQGTLVTVSS
light: EIVLTQSPGTLSLSPGESATLSCRASQHVNSNFLAWYQQKRGQTPRLLIYAASSRATGIPDRFSGSGSGTDFTLTISRLEPEDFAVYYCQQYGTSLTFGQGTKVEIK
Luciferase活性 (荧光值), HCVpp感染Huh7细胞: 100 %
